Experiment: yeast display, Sf9 membrane polyspecificity reagent, FACS + sequencing; frameworks hold sequencing errors
Procedure, shortened: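 A nanobody's polyreactivity label depends on the gate it was sorted from. Yeast display cells were stained with 10% biotinylated, detergent-solubilized Sf9 membrane reagent for 1 hour at 4 °C, enriched on streptavidin microbeads and sorted by FACS. The low and high (top ~1%) gates were set on anti-HA fluorescence for expression and streptavidin fluorescence for reagent binding.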

Sequence | polyreactivity (PSR sort gate)
QVQLVESGGGLVQAGGSLRLSCAATGSIFARYAMGWYRQAPGKERELVAAIDQSAGSTYYADSVKGRFTISRDNAKNTVYLQMNSLKPEDTAVYYCNADFWYWWVNTYVGPGLGYWGQGTQVTVSS | high polyreactivity
QVQLVESGGGLVQAGGSLRLSCAATGSIFFDNAMGWYRQAPGHERELVAAITSSGGRTYYADSVKGRFTISRDNAKNTVYLQMNSLKPEDTAVYYCAASPKYTTGRYSGEYWGQGTQVTVSS | low polyreactivity
QVQLVESGGGLVQAGGSLRLSCAATGSIFFINAMGWYRQAPGKERELVAAITWDGGSTYYADSVKGRFTISRVNAKNTVYLQMNSLKPEDTAVYYCAAVADYYDFISPPLDYWGQGTQVNVSS | low polyreactivity
QVQLVESGGGLVQAGGSLRLSCAATGSIFNFYAMGWYRQAPGKERELVAAIDQNGGSTYYADSVKGRFTISRDNAKNTVYLQMNSLKPVDTAVYYCAKDHQSGRRTYTYRYDYWGQGTQVTVSS | low polyreactivity
QVQLVESGGGLVQAGGSLRLSCAATGSTFHNYAMGWYRQAPGKERELGAGISVRGGGTYYADSVKGRFTISRDNAKNTVYLQMNSLKPEDTAVYYFAKRSRYYYRYDYWGQGTQVTVSS | high polyreactivity
QVQLVESGGGLVQAGGSLRLSCAATGSTFIGYAMGWYRQAPGKETELVAAISEIGGSTYYADSVKGRFTISRDNAKNTVYLKMNSLKPEDTAVDYCAATEVYLYFWYGYEYWGQGTQVTVSS | low polyreactivity
QVQLVESGGGLVQAGGSLRLSCAATGSTLVPNAMGWYRQAPGKERELVAAITRGTITHYADSVKGRFTISRDNAKNTVYVQMNSLKPEDTAVYYCNADVSLDDYDYWGQGTQVTVSS | low polyreactivity
QVQLVESGGGLVQAGGSLRLSCAATGYIGGNAMGWYRQAPWKERELVATLSRSGGSTYYADSVKGRFTISRDNAKNTVYLQMNSLKPEDSAVYYCAAVSYGNYHWGMYYWGQGTQVTVSS | low polyreactivity
QVQLVESGGGLVQAGGSLRLSCAATGYTFYIYAMGWYRQARGKERELVASITSDGRTNYADSVKGRFTISRDNAKNTVYLQMNSLKPEDTAVYYCATVGKVHDRLVAMDYWGQGTQVTGSS | low polyreactivity
QVQLVESGGGLVQAGGSLRLSCAATRRTFYSYAMGWYRQAPGKESELLASITSTGSTYYADSVKGRFTISRDNAKNTVYLQMNSLKPEDTAVYYCAARRQPRYSQRSTYYYWGQGTQVTVSS | high polyreactivity
QVQLVESGGGLVQAGGSLRLSCAATVLKFGKNPMGSYRQATGKERELVAVISWRGSSTYYADSVKGRFTISRVNAKNTVFLQMNSLKPEDTAVYYCTDVYVYVHYQPGYYWGQGTQVTVSS | low polyreactivity
QVQLVESGGGLVQAGGSLRLSCAAYAMGWYRQAPGKERELVAAMSSSGGSTYYADSVKGRFTISRDNAKTTVYLQMTSLKPEDTAVYYCARDPDTYFFPPTGYYTSGFDSWGQGTQVTVSS | low polyreactivity
QVQLVESGGGLVQAGGSLRLSCAAYGFIFKFYAMGWYRQAPGKERELVAAITSGGGRTYYADSVKGRFPISRDNAKNTVYLQMNSLKAQDSAGYYCAVDYLQYYYKKHYYGGQGTQVTVSS | high polyreactivity
QVQLVESGGGLVQAGGSLRLSCAAYGFTFIYYAMGRYRQAPGKERELVAAISRRGGSTYYADSVKGRFTISRDNAKNTVYLQMNSLKPEDTAVYYCAAYTLNTRYDYWGQGTQVTVSS | high polyreactivity
QVQLVESGGGLVQAGGSLRLSCAAYGFTFSRKAMGWYRPAPGKERELVAAISIRGGSTYYADSVKGRFTISRDNAKITVYLQMNSLKPEDTAVYYCAALYRPTDYDYWGQGTQVTVSS | high polyreactivity
QVQLVESGGGLVQAGGSLRLSCAAYGGIFSYNAKGWYSQAPGKEREFVASISSSGGRTYYADSVKGRFTISRDNAQNTVYLQMKSLKPEDTAVYYCAKRGQLRHYSWGQGTQVTVSS | low polyreactivity
QVQLVESGGGLVQAGGSLRLSCAAYGGTFYYYAMGWYRQAPGKEREFVAAITWTGGRTYYADSVKGRFTISRDNAKNTVYLQMNSLKPEDTAVYYCAASDRYGGRDYWGQGTQVTVSS | high polyreactivity
QVQLVESGGGLVQAGGSLRLSCAAYGITFKGNAMGWYRQAPGKERELVAAIRWRAGRTYYADSVKGRFTISRDNAKNTVYLQMNSLKPEDTAVYDCAATYSYLWPEYDYWGQGTQVTVSS | high polyreactivity
QVQLVESGGGLVQAGGSLRLSCAAYGRIFGPYASGWYIQAPGKERELVAAITLSGGGTYADSVKGRFTISRDNAKNTVYLQMNSLKPEDTAVYYCAADSYRLLNSDTGEFEYNYWGQGSQVTVSS | low polyreactivity
QVQLVESGGGLVQAGGSLRLSCAAYGRIFLPNSMGWYIQAPGKERELVAAITWSGGSTYYADSVKGRFTISRDNAKYTVFLQMTSLIPEDTAVYYGAGRGFSYRRRSQQFDYWGLGTQVTVSS | high polyreactivity
QVQLVESGGGLVQAGGSLRLSCAAYGRIFNEYAKGWYRQAPGKERELVAAITYSDDSTYYADSVKGRFTISRDNAKNTVYLQLNSLKPEDTAVYYCNADTPVWDGHAYPVDYWGQGTQVTVSS | low polyreactivity
QVQLVESGGGLVQAGGSLRLSCAAYGRIFRYYAMGWYRQAPGKERELVAGISWRGSSTYYADSVKGRFTLSRDNAKNTVYLQMNSLKPEDTAVYYCNRDQSNIPVTGVRFYYWGQGTQVTVSS | high polyreactivity

Sequence | polyreactivity (PSR sort gate)
QVQLVESGGGLVQAGGSLRLSCAAYGRIFSRYAMGWYRQAPGKERELVAAISSSGTTTYYADSVNGRFTISRDTAKNTVYLQMNSLKPEDTAVYSCATSAVRHIYWGQGTQVTVSS | high polyreactivity
QVQLVESGGGLVQAGGSLRLSCAAYGRIFSSYAMGWYRQAPGKERELVAAISSSGGRTYYADSVKGRFTISRDNAKNTVYLQMNRLKPEDTAVYYFARVTTGGYEYWGQGSQVTVSS | high polyreactivity
QVQLVESGGGLVQAGGSLRLSCAAYGRILSVYAMGWYRQAPGKERELVAAISSTGGTYYADSVKGRFTISRDNAKNTVYLQMNSLKPEDTADYYCAARYSTLTKYYWGQGTQVTVSS | low polyreactivity
QVQLVESGGGLVQAGGSLRLSCAAYGRTFEINAMGWYRQATGKERELVAAISWDDGSTYYADSVKGRFTISRDNAKNTVYLQMNSLKPEDTAVYYCAAESPLHYTHRRGYEYWGQGTQVTVSS | low polyreactivity
QVQLVESGGGLVQAGGSLRLSCAAYGRTFWSYAMGWYRQAPGKERELVADISLDDGTTYYADSVKGRFTISRDNAKNTVYLHMNSLKPEDTAVYYCAAERDQGDDGYGPDYGYWGQGTQVTVSS | high polyreactivity
QVQLVESGGGLVQAGGSLRLSCAAYGRTIPIYAMGWYRQAPGKEREFVAGINWSGGSTSYADSVKGRFTISRDNAKNTVYLQMNSLKPEDTAVYYCDADKYYRYNYWGQGTQVTVSS | high polyreactivity
QVQLVESGGGLVQAGGSLRLSCAAYGRTLRGYAMGWYRQAPGKERELVAALTWSGGSTYYADSVKGRFTISRDHAKNTVYLQMNSLKPEDTAVYYCNARSYPDLYDYWGQGTQVTVSS | low polyreactivity
QVQLVESGGGLVQAGGSLRLSCAAYGRTLYYNTMGWYRQAPGKERELVASIRWDGGRTYYADSVKGRFTISRDNAKNTVYLQLNSLKPEDTAVYYCAKDGGYYYGTYAYDGCFDYWGQGTQVTVSS | low polyreactivity
QVQLVESGGGLVQAGGSLRLSCAAYGSIFAYNAMGWYRQAPGKEREFVAVITRSDDSTYADSVTGRFTISRDNAKNTVYLQMNSLKPVDTAVYYCAAQPFVIDGGYRGDYWGQGTQVTVSS | low polyreactivity
QVQLVESGGGLVQAGGSLRLSCAAYGSIFGSNAIGCYIQAPGKERELVAAISSGSTYYADTVKGRFTISRDNAKNTVYLQMNSLKPEDNAVYYCNARSLLYEFDYWGQGTQVTVSS | low polyreactivity
QVQLVESGGGLVQAGGSLRLSCAAYGSIFRKYVMGWYRQAHGKERELVAVISSGTGTYYADSVKGRFTISRDNAKNTVYLQMNSLNPEDTAVYYCAARVGRYGYSQYYYWGHGTQVTVSS | high polyreactivity
QVQLVESGGGLVQAGGSLRLSCAAYGSIFRWYAMGWYRQAPGKERELVAAISTSGGNKYYADSVKGRFTISRDNAKNTVYLQMNSLKPEDTAVYYCNALWYRSLSYRYDYWGQGTQVTVSS | high polyreactivity
QVQLVESGGGLVQAGGSLRLSCAAYGSIFSENAMGWYRQAPGKEWELVADITDGGGSTYYADSVKGRFTISRDNAKNPVYLQMNSLKPDDTAVYYCNAQIFFFAPWYYEYDYWGQCTQVTVSS | low polyreactivity
QVQLVESGGGLVQAGGSLRLSCAAYGSIFVLNAMGWYRQAPGKERQLVAAITNVGSTYYADSVKGRFTISRDNAKNTVYLQMNSLKPEDTAVYYCNADPGEVLVGYDYWGQGTQVSVSS | low polyreactivity
QVQLVESGGGLVQAGGSLRLSCAAYGSILRSNAMGWYRQAPGKERELVAVISNDDSTYYADSVKGRFTISRDNAKNTVYLQMNSLKPEDTAVYYCNAVYYYFFRWNPIYDSWGQGTQVTVSS | low polyreactivity
QVQLVESGGGLVQAGGSLRLSCAAYGSNFTSNAMGWYRQAPGKERELVAVITIGGSTNYADSVKGRFTISRDNAKNTVYLQMNSLKPEDTAVYYCAADDDYSRILQGDQSDDYWGQGSQVTVSS | low polyreactivity
QVQLVESGGGLVQAGGSLRLSCAAYGSNYSTYTMGWYRTAAGKERQLVAAITRSGGSTYYADSVKGRFTISRDNAKKTDYLQMNSLKPEDTAVFYCAARGQAYSGDRMYYWGLGTQVTVSS | high polyreactivity
QVQLVESGGGLVQAGGSLRLSCAAYGSTFIAYAMGWYRQAPGKERELVAAITRGGSTNYADSVKGRFTISRDNAKNTVYLQMNRLKPEDTAVYYCAADRSWGYWGRSRYDYWGQGTQVTVSS | high polyreactivity
QVQLVESGGGLVQAGGSLRLSCAAYGSTFKRNAMGCYRQAPGKEREFVAAITWSGGSTYYADSVKGRFTISRDNAKNTVYLQMNSLKPEDTAVYYCNADRFSSRHSYDYWGQGTQVTVSS | low polyreactivity
QVQLVESGGGLVQAGGSLRLSCAAYGSTFPSYAMGSNRQAPGKERELVAAISWTGGTTYFADSVKGRFTISRDNAKNTVYLQMNSLKPEDTAVYYCNAKDGGGSQDQAQKRPIIRFDYWGQGSQVTVSS | high polyreactivity
QVQLVESGGGLVQAGGSLRLSCAAYGSTFQRYAMGWYRQAPGKERELVAAITLSGGNTYYADSVKGRFTISRDNAKNNVYLQMNSLKPEDTAVYYCAARRYRGYDYWGQGTQVTVSS | high polyreactivity

Source: the nanobody polyreactivity screen of Harvey et al. (2022)
